Assay [1] has as its target T1, HGREM1-His (ACRO) (human, UniProt O60565 25-184).
T1 construct: Lys25-Asp184 of NP_037504 with C-terminal polyhistidine tag (ACRO GR1-H52H3); they are put here; also called hGREM1 (ACRO); human gremlin (ACRO)
T1 sequence: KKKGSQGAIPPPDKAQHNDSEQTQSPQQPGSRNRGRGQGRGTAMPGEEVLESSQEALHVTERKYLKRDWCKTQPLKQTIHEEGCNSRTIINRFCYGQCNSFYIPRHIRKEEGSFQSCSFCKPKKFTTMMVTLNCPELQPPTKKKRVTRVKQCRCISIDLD
Nature of the assay: BLI Fortebio, human gremlin-his on NTA biosensor, antibody 100, 50, 25 nM. As for the experimental part:
The affinity of the humanized antibodies were also measured by Fortebio. Human gremlin protein was diluted with kinetics buffer to get a concentration of 2 μg/ml. 0 nM was used as a reference control. Antibodies to be tested were diluted with ForteBio kinetics buffer (PBS pH 7.4, 0.1% BSA+0.002% Tween-20) to a concentration of 100 nM, 50 nM, and 25 nM. Human gremlin-his was immobilized onto NTA biosensor. The baseline was detected for 60 seconds, and then anti-gremlin antibody association was detected for 120 seconds to get the Kₒₙ factor data. Followed by dissociation in kinetic buffer for 90 seconds to get the Koff factor data.
For orientation: In BLI a coated tip is dipped into the sample, and binding shifts an interference pattern.

Assay [2] deals with T2, DAN-his (Sinobiological) (human, UniProt P41271 17-181, limits assumed).
T2 construct: also called DAN (Sinobiological); human DAN-his
T2 sequence (looked up): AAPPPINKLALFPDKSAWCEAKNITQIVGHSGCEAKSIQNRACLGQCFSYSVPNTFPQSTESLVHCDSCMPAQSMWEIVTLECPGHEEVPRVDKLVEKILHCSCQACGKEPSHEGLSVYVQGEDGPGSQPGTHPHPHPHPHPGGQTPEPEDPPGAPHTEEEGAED
Nature of the assay: ELISA on coated DAN-his; unit from the axis Ab(nM); panel called FIG. 19C in the text. As for the experimental part:
(§1) Clear polystyrene plates (BEAVER) were coated with 100 μl/well of a 0.5 μg/ml human gremlin (ACRO) and DAN (Sinobiological) in high pH coating buffer overnight at 4° C. Then the plates were washed once on an automatic plate washer using PBS+0.1% Tween 20 (Sigma). 100 μl of block solution consisting of PBS+1% BSA+1% normal goat serum+0.5% Tween 20 (Sigma) was added to each well and incubated at room temperature for 2 hours. Then 100 ul of antibodies (hybridoma or chimeric antibody 36F5, chimeric antibody 67G11, chimeric antibody 42B9) in antibody dilution buffer containing PBS+1% BSA+1% normal goat serum+0.01% Tween 20 starting from 2 μg/ml (13.33 nM) and then 4 fold serial dilution were added to each well of the plate and incubated for 1 hours at room temperature. Afterward the plates were washed three times with 200 ul of PBS+0.1% Tween20 followed by adding 100 μl/well 1:10000 Goat anti mouse IgG-HRP or mouse anti-human IgG-HRP (abcam), and incubate for 1 hour at room temperature. They were then washed 3× with PBS+0.1% Tween20. Finally, 100 μl/well of TMB (InnoReagents) was added to each well and after 2 minutes add 50 ul of stop solution to each well. The plates were read on a Multiscan FC microplate reader (Thermo Scientific) at 450 nm.
For orientation: In an ELISA, binding on a coated surface is turned into a signal by an enzyme label.

Assay [3] deals with T1, HGREM1-His (ACRO). Kind of assay: competition ELISA, Gremlin-his 0.25 ug/ml binding to coated FGFR1-Fc. As for the experimental part: Next, 0.25 μg/ml of gremlin was selected to test the blocking activity. The ability of antibodies to block Gremlin binding to human FGFR1-Fc was examined via ELISA. Plates were coated with recombinant FGFR1-Fc (2 μg/ml) overnight and then serial dilutions of antibodies were incubated with 0.25 μg/ml of human Gremlin-his modified for 1 h at RT before this complex was added to coated plates and allowed to incubate for an additional hour at RT. The plates were then washed and added with anti-his HRP (GenScript). Plates were then developed with a TMB solution and stopped by adding stop solution. The plates were read on a plate reader at 450 nm. […] Humanized anti-GREM1 antibodies provided herein (e.g., Hu14E3, Hu22F1) are expected to show the similar technical effect as their chimeric counterparts in blocking the binding of hGREM1 to FGFR1.

In assay [4] the target is T2, DAN-his (Sinobiological). Nature of the assay: blocking ELISA: coated BMP2, antibody pre-incubated with human DAN-his, anti-his HRP; blocked ligand BMP2; unit from the axis Concentration(nM). As for the experimental part:
(§2) Plates were coated with recombinant human BMP2/4 (0.5 μg/ml) overnight. Then the plates were washed once on an automatic plate washer using PBS+0.1% Tween 20 (Sigma). 100 μl of block solution consisting of PBS+1% BSA+1% normal goat serum+0.5% Tween 20 (Sigma) was added to each well and incubated at room temperature for 2 hours. Then the plates were washed three 3 times. Then 55 ul serial dilutions of chimeric antibodies 36F5 and 55 ul […] of human DAN-his in dilution buffer containing PBS+1% BSA+1% normal goat serum+0.01% Tween 20 separately were mixed and incubated for 1 h at RT before 100 ul of this complex was added to coated plates and allowed to incubate for an additional hour at room temperature. The plates were then washed 3 times and added with 100 ul of anti-his HRP (GenScript) in dilution buffer. Plates were then developed with a TMB solution and stopped by adding stop solution. After wash three times with wash buffer, the plates were read on a plate reader at 450 nm. Also, consistent with previous result, besides blocking gremlin activity, 36F5 could block BMP2/4 binding to DAN protein. (FIGS. 20A and 20B).

The target in assay [5] is T2, DAN-his (Sinobiological). Kind of assay: blocking ELISA: coated BMP4, antibody pre-incubated with human DAN-his, anti-his HRP; blocked ligand BMP4; unit from the axis Concentration(nM) [Continued]. The method, then:
as §2

Assay [6] deals with T1, HGREM1-His (ACRO). Kind of assay: ELISA on coated human Gremlin-his; unit from the axis Ab(nM); panel called FIG. 19C in the text. As for the experimental part:
as §1

The target of assay [7] is T2, DAN-his (Sinobiological). Kind of assay: ELISA on coated DAN-his; unit from the axis label Ab(ug/ml), the table prints none. The method, then:
as §1

Assay [8] has as its target T1, HGREM1-His (ACRO). Nature of the assay: ELISA on coated Gremlin-his; unit from the axis label Ab(ug/ml), the table prints none. The method, then: as §1

B1: humanized anti-gremlin1 antibody 14E3 (variant not stated) (antibody, V domains shown)
VH: QVQLVQSGSELKKPGASVKVSCKASGYTFTTYGMAWMRQAPGQGLEWMGWINTLSGEPTYADDFKGRFVFSLDTSVSTAYLQISSLKAEDTAVYYCAREPMDYWGQGTMVTVSS
VL: DVVMTQSPLSLPVTLGQPASISCKSSQSLLDSDGKTYLSWLQQRPGQSPRRLIYLVSKLDSGVPDRFSGSGSGTDFTLKISRVEAEDVGVYYCWQGAHFPLTFGQGTKLEIK
notes: also called Hu14E3; humanized 14E3
The term Kd denotes a measure of binding affinity in units of concentration. Read a high Kd as weaker binding. The molecule B1 returned a Kd in the assay with HGREM1-His (ACRO) [1] of under 1 nM.

B2: chimeric antibody 36F5 (36F5-chi) (antibody, human IgG1, V domains shown)
VH: QVQLQQSGAELARPGASVKLSCKASGYSFTSSGIGWVKQRSGQGLEWIGEIYPRSGNTYNNEKFKGKATLTADKSSSTVYMELRSLTSEDSAVYFCVREAYSHHYYAMDYWGQGTSVTVFS
VL: DVLMTQTPLSLPVSLGGQASISCRSSQSLLHSNGNTYLEWYLQKPGQSPKLLIYKVSNRFSGVPDRLSGSGSGTDFTLKISRVEAEDLGVYYCFQGSHVPFTFGSGTKLEIN
notes: also called chimeric 36F5
As a reminder, the EC50 is the concentration that produces a half-maximal response. A word on the IC50: it is the concentration that inhibits the measured activity by half. Higher therefore signals weaker potency in that assay. In the case of B2, the EC50 with DAN-his (Sinobiological) [2] worked out at 0.0211 nM; with HGREM1-His (ACRO) [6], 0.0183 nM; with DAN-his (Sinobiological) [7], 0.02 µg/mL; with HGREM1-His (ACRO) [8], 0.0238 µg/mL. The IC50 with HGREM1-His (ACRO) [3] was 1.37 nM; with DAN-his (Sinobiological) [4] it was 3.29 nM; in the assay with DAN-his (Sinobiological) [5] it was 3.93 nM.
